Consider four molecules from paper PMC8517210, “Structural and DNA-binding properties of the cytoplasmic domain of Vibrio cholerae transcription factor ToxR”.

Conditions in all cases: protein: recombinant; tags: N-terminal His6; chain copies: 2; none in NMR; blunt
Data set [1] has as its target T1, cToxR_1-134 (Vibrio cholerae, UniProt P15795 1-134). Kind of data set: NMR CSP titration; mean as printed; T111 0.15 ± 4e-9, L99 0.63 ± 1e-8.
Data set [2] concerns the target T1, cToxR_1-134. In words: fluorescence anisotropy.
The target in data set [3] is T1, cToxR_1-134. Kind of data set: NMR CSP titration; mean as printed; T111 28.26 ± 5.73, L99 27.88 ± 3.01.
Data set [4] deals with T1, cToxR_1-134. Kind of data set: NMR CSP titration; mean as printed; T111 6.82 ± 1.07, L99 5.16 ± 0.46.
The target in data set [5] is T1, cToxR_1-134. Kind of data set: NMR CSP titration; mean as printed; T111 14.21 ± 0.31, L99 14.78 ± 6.62.

T1 sequence (P15795 1-134): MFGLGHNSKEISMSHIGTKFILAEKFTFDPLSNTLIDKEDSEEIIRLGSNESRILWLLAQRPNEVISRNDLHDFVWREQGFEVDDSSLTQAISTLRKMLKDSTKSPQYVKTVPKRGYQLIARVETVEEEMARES

B1: toxT (dsDNA)
DNA 1: CTCAAAAAACATAAAA
DNA 2: TTTTATGTTTTTTGAG
On to B1, for which the Kd with cToxR_1-134 [1] is 0.35 µM; with cToxR_1-134 [2] it was 0.66 ± 0.1 µM.

B2: ctx (dsDNA)
DNA 1: GATTTTTGATTTT
DNA 2: AAAATCAAAAATC
For B2, the Kd with cToxR_1-134 [3] was determined as 28.1 µM; in the data set with cToxR_1-134 [2], 9.71 ± 0.84 µM.

B3: ompU (dsDNA)
DNA 1: ATTTATATCATTTTA
DNA 2: TAAAATGATATAAAT
On to B3, for which the values for the Kd with cToxR_1-134 [4] and with cToxR_1-134 [2] were 5.99 µM and 5.49 ± 0.91 µM, respectively.

B4: ompT (dsDNA)
DNA 1: TTTTATGGTATTTGA
DNA 2: TCAAATACCATAAAA
Take B4: the Kd was determined as 14.5 µM in the data set with cToxR_1-134 [5] and 12.8 ± 1.27 µM with cToxR_1-134 [2].
